Our source for the Km, kcat and kcat/Km values is paper doi:10.1101/568972v1 (biorxiv, 2019).

One data set concerns the target T1, AceKMs (Mycolicibacterium smegmatis, UniProt A0QQK1).
T1 sequence (A0QQK1 1-376): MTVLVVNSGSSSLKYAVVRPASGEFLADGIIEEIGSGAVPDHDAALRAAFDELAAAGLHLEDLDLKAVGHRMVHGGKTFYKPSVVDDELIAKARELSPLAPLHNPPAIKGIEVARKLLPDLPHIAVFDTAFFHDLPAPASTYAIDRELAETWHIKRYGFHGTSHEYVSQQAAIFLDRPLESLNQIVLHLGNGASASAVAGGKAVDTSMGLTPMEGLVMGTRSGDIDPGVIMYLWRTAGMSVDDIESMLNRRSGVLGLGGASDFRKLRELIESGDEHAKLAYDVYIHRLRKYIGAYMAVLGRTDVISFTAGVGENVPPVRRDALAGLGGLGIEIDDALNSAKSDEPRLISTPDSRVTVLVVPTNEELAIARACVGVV
The data set can be described thus: HPLC of ATP/ADP, steady-state kinetics. The data set is classed as biochemical. As to conditions: read-out: KM (substrate); ADP in excess; 10 mM MgCl2, pH 9.0, room temperature.

Substrate in data set [1]: Nc1ncnc2c1ncn2[C@@H]1O[C@H](COP(=O)(O)OP(=O)(O)O)[C@@H](O)[C@H]1O
Description: purified protein, by the assay type.

Substrate in data set [2]: NC(=O)c1ccc[n+]([C@@H]2O[C@H](COP(=O)(O)OP(=O)(O)OC[C@H]3O[C@@H](n4cnc5c(N)ncnc54)[C@H](O)[C@@H]3O)[C@@H](O)[C@H]2O)c1
Description: purified protein, by the assay type.

Substrate in data set [3]: O=P(O)(O)OC[C@H](O)CO
Description: purified protein, by the assay type.

Substrate in data set [4]: O=P(O)(O)OC[C@H](O)CO
The data set can be described thus: purified protein. As to conditions: NAD+ co-substrate, 50 mM sodium phosphate pH 9.0, ambient temperature.

Substrate in data set [5]: NC(=O)C1=CN([C@@H]2O[C@H](COP(=O)(O)OP(=O)(O)OC[C@H]3O[C@@H](n4cnc5c(N)ncnc54)[C@H](O)[C@@H]3O)[C@@H](O)[C@H]2O)C=CC1
The data set can be described thus: purified protein. The note with it: O2, 50 mM sodium phosphate pH 7, 1 mg/mL BSA, ambient temperature.

Substrate in data set [6]: OCC(O)CO
The data set can be described thus: purified protein, by the assay type. As to conditions: pH 9.0.

Substrate in data set [7]: OCC(O)CO
Description: purified protein. The data set is classed as biochemical, Thermococcus kodakarensis. As to conditions: ATP in excess, 10 mM MgCl2, 50 mM NaHCO3 pH 9.0, room temperature.

Substrate in data set [8]: O=C(CO)COP(=O)(O)O
The data set can be described thus: purified protein. The note with it: acceptor aldehyde not stated; 'DHAP' printed as table sub-heading.

Broadly, the Km is the concentration of substrate that gives half-maximal velocity. For `CC(=O)OP(=O)(O)O` [acetyl phosphate], the Km at AceKMs came out at 390 ± 8 µM.

B1: GlpKTk-AceKMs-Est2Aa (Mycolicibacterium smegmatis MC2 155) (protein)
chain: T1 sequence (A0QQK1 1-376)
On to B1, for which the Michaelis constant (Km) in [1] was determined as 398 ± 29 µM.

B2: G3PDEc-NOXCa-Est2Aa (Escherichia coli K-12) (protein)
chain: MNQRNASMTVIGAGSYGTALAITLARNGHEVVLWGHDPEHIATLERDRCNAAFLPDVPFPDTLHLESDLATALAASRNILVVVPSHVFGEVLRQIKPLMRPDARLVWATKGLEAETGRLLQDVAREALGDQIPLAVISGPTFAKELAAGLPTAISLASTDQTFADDLQQLLHCGKSFRVYSNPDFIGVQLGGAVKNVIAIGAGMSDGIGFGANARTALITRGLAEMSRLGAALGADPATFMGMAGLGDLVLTCTDNQSRNRRFGMMLGQGMDVQSAQEKIGQVVEGYRNTKEVRELAHRFGVEMPITEEIYQVLYCGKNAREAALTLLGRARKDERSSH
The kcat is the maximal rate divided by the concentration of active sites. As a reminder, the kcat/Km is the second-order rate constant that governs catalysis at low substrate concentration. On to B2, for which the Michaelis constant (Km) in [2] was determined as 164 ± 10 µM. Also, in [3], the Michaelis-Menten constant (Km) came out at 659 ± 47 µM, the catalytic constant (kcat) stood at 7 ± 0.6 s⁻¹ and the catalytic efficiency (kcat/Km) worked out at 11000 M⁻¹ s⁻¹.

B3: G3PDEc (Escherichia coli K-12) (protein)
chain: B2 chain
Consider B3, for which, in the data set “purified protein [4]”, the Michaelis-Menten constant (Km) came out at 59 ± 4 µM and the kcat worked out at 85 ± 11 s⁻¹.

B4: NoxCa (Anaerocolumna aminovalerica) (protein)
chain: MKIVVIGCTHAGTAAVKTILKENPEAEITIFERNDNISFLSCGIALYVGGVVKDPAGLFYSNPEELSKMGANVKIKHNVKSIDTKSKKVIAEDMNTGEEIEVSYDKLVNTTGSWPIIPPIPGIESKNILLCKNYDQANVIIRQTKDAKKIVIVGGGYIGIELVEAFQKSGKQVTLIDGLDRILNKYLDKEFTDILEDDLKKNGINLALDQCVKSFKANENGEVTSVETTKGEYEADMVILCVGFRPNNELLKGKVDMLPNDAIIVDEYMRTSDPDIFAAGDSCAVHYNPNGNYAYIPLATNAVRMGMLIGKNISTPKVKYRGTQSTSGLNLFGYNIGSTGVTVSGAPQIGLNVRSVIVKDNYRPEFMPTNEEIIMQLVYEVGTNRIVGGQVMSKYDITQSANTLSLAIQNKMTIEDLAYVDFFFQPHFDRPWNYLNILGLAALEQEGL
Take B4: in the data set “purified protein [5]”, the Michaelis constant (Km) is 258 ± 21 µM and the turnover number (kcat) is 1,252 ± 182 s-1.

B5: GlpKTK-AceKMs-Est2Aa (Thermococcus kodakarensis KOD1) (protein)
chain: MEKFVLSLDEGTTSARAIIFDRESNIHGIGQYEFPQHYPRPGWVEHNPEEIWDAQLRAIKDAIQSARIEPNQIAAIGVTNQRETTLVWDKDGKPLYNAIVWQCRRTAEMVEEIKREYGTMIKEKTGLVPDAYFSASKLKWLLDNVPGLREKAEKGEVMFGTVDTFLIYRLTGEHVTDYSNASRTMLFNIKKLDWDDELLELFDIPESVLPEVRESSEVYGYTKKELLGAEIPVSGDAGDQQAALFGQAAFEAGMVKATYGTGSFILVNTDKMVLYSDNLLTTIAWGLNGRVSYALEGSIFVTGAAVQWLRDGIKIIKHASETEELATKLESNEGVYFVPAFVGLGAPYWDQFARGIIIGITRGTGREHLARATLEAIAYLTRDVVDEMEKLVQIKELRVDGGATANDFLMQFQADILNRKVIRPVVKETTALGAAYLAGLAVDYWADTREIAELWKAERIFEPKMDEKTRERLYKGWKEAVKRAMGWAKVVDSAKSN
As for B5, in data set [6], the Km was 16 ± 4 µM, the kcat is 1400 ± 54 s⁻¹ and the specificity constant (kcat/Km) stood at 8.6e+07 M⁻¹ s⁻¹.

B6: GlpKTk (Thermococcus kodakarensis KOD1) (protein)
chain: B5 chain
For B6, in the data set “purified protein [7]”, the Km came out at 15 ± 2 µM and the kcat came out at 940 ± 8 s⁻¹.

B7: FruASc (Staphylococcus carnosus subsp. carnosus TM300) (protein)
chain: NQEQFDKIKNGKGFIAALDQSGGSTPKALKDYGVEENEYSNDEEMFNLVHDMRTRIITSPAFNGEKILGAILFEQTMDREVEGKYTGSYLADKGIVPFLKVDKGLAEEADGVQLMKPIPDLDKLLDRANERGIFGTKMRSNILENNKEAIEKVVKQQFEVAKEIIAAGLVPIIEPEVNINAKDKEAIEANLAEAIKAELDNLKKDQYVMLKLTIPTKVNAYSELIEHPQVIRVVALSGGYSRDEANKILKQNDGLIASFSRALVSDLNAQQSDAEFNEKLQEAIDTIFDASVNKA
B7: in “purified protein [8]”, the Km was 500 ± 80 µM and the kcat came to 16 ± 2 s⁻¹.
